Source: publication PMC4822561, “Structure of a quinolone-stabilized cleavage complex of topoisomerase IV from Klebsiella pneumoniae and comparison with a related Streptococcus pneumoniae complex” (Acta Crystallographica. Section D, Structural Biology, 2016)

B3: S. pneumoniae topoisomerase IV ParC55 (domain or fragment)
chain: MSNIQNMSLEDIMGERFGRYSKYIIQDRALPDIRDGLKPVQRRILYSMNKDSNTFDKSYRKSAKSVGNIMGNFHPHGDSSIYDAMVRMSQNWKNREILVEMHGNNGSMDGDPPAAMRYTEARLSEIAGYLLQDIEKKTVPFAWNFDDTEKEPTVLPAAFPNLLVNGSTGISAGYATDIPPHNLAEVIDAAVYMIDHPTAKIDKLMEFLPGPDFPTGAIIQGRDEIKKAYETGKGRVVVRSKTEIEKLKGGKEQIVITEIPYEINKANLVKKIDDVRVNNKVAGIAEVRDESDRDGLRIAIELKKDANTELVLNYLFKYTDLQINYNFNMVAIDNFTPRQVGIVPILSSYIAHRREVILARSRFDKEKAEKRLHIVEGLIRVISILDEVIALIRASENKADAKENLKVSYDFTEEQAEAIVTLQLYRLTNTDVVVLQEEEAELREKIAMLAAIIGDERTMYNLMKKELREVKKKFATPRLSSLEDTAKALE
notes: ParC breakage-reunion domain (ParC55), S. pneumoniae isolate 7785 (St George's Hospital); two residues between ParC and the His6 tag; also called ParC N-terminal domain; ParC subunit; source: E. coli BL21(λDE3) pLysS, pET-29a (C-terminal His6); purification protocol in the Supporting Information

Experiments:
[1] = biological target: the molecule itself; assay: crystal structure; K. pneumoniae ParE-ParC fusion (4.5 mg/ml) co-crystallised with pre-cut 34-mer E-site DNA (1:1.2 protein:DNA), 2 mM levofloxacin, 10 mM MgCl2; vapour diffusion, 298 K; 3.35 Å, space group P2(1)
[2] = biological target: B3; assay: crystal structure; S. pneumoniae ParC55:ParE30:18-mer E-site DNA 1:1:1.2 at 4 mg/ml, 2 mM levofloxacin, 10 mM MgCl2; capillary counter-diffusion, 304 K; 2.9 Å, space group P3(1)21; settings: both partners purified
[3] = biological target: the molecule itself; assay: as above

B1: K. pneumoniae topoisomerase IV ParC breakage-reunion domain (ParC55; residues 1–490) (domain or fragment, K. pneumoniae (strain ATCC 35657))
chain: MSDMAERLALHEFTENAYLNYSMYVIMDRALPFIGDGLKPVQRRIVYAMSELGLNASAKFKKSARTVGDVLGKYHPHGDSACYEAMVLMAQPFSYRYPLGDGQGNWGAPDDPKSFAAMRYTESRLSKYAELLLSELGQGTVDWVPNFDGTLQEPKMLPARLPNILLNGTTGIAVGMATDIPPHNLREVAKAAITLIEQPKTTLDELLDIVQGPDFPTEAEIITSRAEIRKIYQNGRGSVRMRAVWSKEDGAVVITALPHQVSGAKVLEQIAAQMRNKKLPMVDDLRDESDHENPTRLVIVPRSNRVDMEQVMNHLFATTDLEKSYRINLNMIGLDGRPAVKNLLEILSEWLVFRRDTVRRRLNHRLEKVLKRLHILEGLLVAFLNIDEVIEIIRTEDEPKPALMSRFGISETQAEAILELKLRHLAKLEEMKIRGEQSELEKERDQLQAILASERKMNNLLKKELQADADAFGDDRRSPLHEREEAKAMS
notes: ParC breakage-reunion domain (ParC55), K. pneumoniae strain ATCC 35657, residues 1-490; In the crystal this stretch was joined on one chain with ParE 390-631 (see m1: M-ParE(390-631)-EF-ParC(1-490)-His6); written alone for the pair rows; also called ParC NTD 1–490; ParC subunit; source: E. coli BL21(λDE3) pLysS, pET-29a; purification protocol in the Supporting Information
With B1 the “stoichiometry N” value [1] was 2.

B2: S. pneumoniae topoisomerase IV ParE30 (domain or fragment)
chain: KNKKDKGLLSGKLTPAQSKNPAKNELYLVEGDSAGGSAKQGRDRKFQAILPLRGKVINTAKAKMADILKNEEINTMIYTIGAGVGADFSIEDANYDKIIIMTDADTDGAHIQTLLLTFFYRYMRPLVEAGHVYIALPPLYKMSKGKGKKEEVAYAWTDGELEELRKQFGKGATLQRYKGLGEMNADQLWETTMNPETRTLIRVTIEDLARAERRVNVLMGDKVEPRRKWIEDNVKFTLEEATVF
notes: ParE TOPRIM domain (ParE30), S. pneumoniae isolate 7785 (St George's Hospital); the limits fit the printed Glu474 and Glu475; also called ParE C-terminal domain; ParE TOPRIM domain; source: E. coli BL21(λDE3) pLysS, pET-19b (N-terminal His10); purification protocol in the Supporting Information
B2: binds [2].

B3: binds [3].
